Measured values from article PMC9231606, “Membrane insertion mechanism of the caveola coat protein Cavin1” (Proceedings of the National Academy of Sciences of the …, 2022).

Target: the molecule itself
Test: mass photometry; sample 25 to 100 nM in a gasket well on glass coverslips, acquisition for 60 s; mass from contrast comparison with bovine serum albumin calibrants

B1: Cavin1 (1–190) (domain or fragment, UniProt O54724 1-190, looked up)
chain: MEDVTLHIVERPYSGFPDASSEGPEPTQGEARATEEPSGTGSDELIKSDQVNGVLVLSLLDKIIGAVDQIQLTQAQLEERQAEMEGAVQSIQGELSKLGKAHATTSNTVSKLLEKVRKVSVNVKTVRGSLERQAGQIKKLEVNEAELLRRRNFKVMIYQDEVKLPAKLSVSKSLKESEALPEKEGDELGE
notes: Cavin1, residues 1 to 190 (DR1 1–43, HR1 45–155, DR2 156–190); By mass photometry it was detected as trimers and also as monomers; also called N-terminal part (residues 1 to 190); DR1–HR1–DR2; source: E. coli Rosetta pLysS or BL21(DE3)pLysS, purified (TALON Superflow, gel filtration on Sephacryl S-300 HR)
  stoichiometry N: 3
